Assay results reported in the supplement of paper PMC9170038.

Tested on: K4 kissing-loop RNA reporter
Assay: apparent KD of K4 kissing-loop reporter; higher = weaker reporter binding
Conditions: Eterna round: R107
Procedure: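 RNA-MaP round R107: designed RNA switches with theophylline, tryptophan, arginine or FMN aptamers are transcribed on-chip within common flanks. They are titrated with a labelled K4 kissing-loop RNA reporter in RNA-MaP buffer (100 mM Tris pH 7.5, 80 mM KCl, 4 mM MgCl2), without ligand or with the indicated ligand. Median apparent KD per design.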

[1] = input ligand: theophylline 20 uM
[2] = input ligand: tryptophan 2.4 mM
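Note: bound reporter read as fluorescence of individual clusters on recovered sequencing chips by microscopy, with normalized cluster intensities fitted with a binding model.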

| Sequence | apparent KD of K4 kissing-loop reporter (input ligand: FMN 200 uM) [nM] | apparent KD of K4 kissing-loop reporter (input ligand: arginine 13.2 mM) [nM] | apparent KD of K4 kissing-loop reporter (input ligand: none) [nM] | apparent KD of K4 kissing-loop reporter [1] [nM] | apparent KD of K4 kissing-loop reporter [2] [nM] |
| --- | --- | --- | --- | --- | --- |
| AACUGUCAAGGACAACAUUACUGAAGUGAUACCAGCAUCGAAAGAUGCCCUUGGCAGCACUGACUUGCAGUGAUGUUGCAAGUAA [BrourdMod 7 - Jieux - Exclusion - Theophylline A] | 211 | 165 | 194 | 200 | 194 |
| GGAUCCACCAGUGAUGUUGGAGAAAACUUCAAGGAUAUGACGAAAGUCAGAAGGUGAUAGACUGGACAAAGUCCGGUCGGAUCCA [FmnA 19 U29+A57] | 552 | 729 | 454 | 527 | 462 |
| CGAGUGAUGUUCGUUUUUUACUUUUUUUGACAGGAUAUGCGGAAACGCAGAAGGGUCACCUUUGAGUUAAAAGAAGUUAUUUUUU [Ex FMN A 18] | 262 | 267 | 317 | 271 | 249 |
| GCCAGUGCGCGAAGGAGCGCCGUGACAGGUUACUGCCUUGGGCAGUGAUGUUGCUCAAUCUGGCAGGUAGGUCGCGUGCACUGGC | 212 | 184 | 166 | 204 | 197 |
| CUAUUUCGCGUGGAUACCAGCGGUCGUAAAAUGUCAGUGAUGUUGAAGAGGAAAAGAGCUCGCCCUUGGCAGCCAUUCCGCACUA [theeternabot_sameState_KL_Theo_B_34] | 591 | 363 | 568 | 446 | 399 |
| AUCGUUGUCUGAGGAUAUCGGUUAUCUGUAGUGAUGUUACAGUAUAUUGAUAUUAUAGUUUCUUUUCGAGAAGGCAGACUACGUA [JR_Nu_ExcFMNB_Sub021] | 74.1 | 61.3 | 68.9 | 65.4 | 66.4 |
| GCUAUGGUAGGAAGGAGCGCUGCCUUGUUUUUACGAGUGAUGUUCGGAAGCAGGGUGUUAAAGCAGGUAGGUCGCCUACUAUAGC [Arginine B K4 23] | 191 | 121 | 160 | 172 | 155 |
| CGCAUACCUGCGCUAGUAGUGAUGUUACAGCGAGGACCGGUACGGCCGCCACUCGUGACGGUCGCAAAACGCGUUGCAGAACACU [theeternabot_exclusion_KL_Trp_A_32] | 342 | 183 | 247 | 253 | 322 |
| AGAGUUAUGAGAGGAUAUGCGGCUAGUACUCAAAGAGUACUAGCAGCGGAGUGAUGUUCUGCGAAAGCAGAAGGUUCAUAACUCA [#08 K4 FMN B Same State] | 214 | 622 | 1710 | 1110 | 1050 |
| CGAGCGCGUGCGGCCGCCACUACUAUAAGUCGUCCAAGUUAGUGAUGUUGACUGAACGUCGGAAAUAGGACCGGGCAUAGUUUUA [theeternabot_sameState_KL_Trp_B_40] | 351 | 410 | 420 | 415 | 300 |
| AAAGUGUCAGCACGAGUGAUGUUCGUGGAUACCAGCCUCGAUAAAGGCCCUUGGCAGCCGAAAAGUCAAGGGCUGGCACAUAAAA [KL-XTheo-A11] | 216 | 205 | 251 | 341 | 226 |
| ACCAUCAAAGAUGGCCUCGACACCGCUGAUACCAGAGUGAAAACACUCCCUUGGCAGCAGGUGAGUGAUGUUCACAGUCGAAGGA [Omel KL Theo A SS B v1] | 492 | 464 | 641 | 538 | 470 |
| UGAUACCAGACGGCCGCCACUACACCAGUCAAAGACUGGAUGUGAUGUUUGACCAGUGAUGUUGGUAGGACCGGGUCUGGUAUCU [TrypBX 5 #Palindromic #SwitchBubble #StaticStem] | 500 | 394 | 450 | 494 | 326 |
| CGCCGGAAGGCGGUCGCUCCCACUCCGGAAGGAGCGCCCGGAAGGGCAGGUAGGUCGCCGGAGUGAUGUUCCGGUGGAGGGACCG [#2 Exclusion - Arginine A Attempt #10 (Inspired by Omei)] | 230 | 117 | 113 | 111 | 109 |
| GCGCAUGUUAAAGGAUAUAGCAGGUGAUACAAGAAAGUGAGUGAUGUUUAUGUAGAUGAUGAUAUGUUAGAAGGUUAACAAACGC [abcdefghijklmno] | 922 | 624 | 809 | 867 | 564 |
| AGUGAGUGAUGUUCACUGUACGUGUCUGAAGGAGCGACAUCGAUGUCAGGUAGGUCGCAGACAUGUCAUCUAUGGUGCGUGACCA [Arg A SS t10] | 124 | 116 | 129 | 163 | 118 |
| GGUUUAUAGGAGGAUACCAGUACGGAUAAAGUACAUUAAUAGUAGAGUGAUGUUCUAAAGUACCCUUGGCAGCUUAGAUUAAGUU [ExTheophylB.I] | 87.1 | 177 | 133 | 209 | 74 |
